Measurements published in US8202696 (MAX PLANCK GESELLSCHAFT ZUR FORDERUNG DER WISSENSCHAFTEN E V, dated 2012).
One block for each binder: values may come before it.

B2: MID1 B-box 1 (residues 110-165), yeast two-hybrid bait (other)
chain: TMTSAEKVLCQFCDQDPAQDAVKTCVTCEVSYCDECLKATHPNKKPFTGHRLIEPI
notes: also called BB1; isolated B-Box1; not shown: two-hybrid fusion partner; not described
B4: α4 protein, full-length, in the yeast two-hybrid system (other, human, UniProt P78318 2-339, looked up)
chain: AAEDELQLPRLPELFETGRQLLDEVEVATEPAGSRIVQEKVFKGLDLLEKAAEMLSQLDLFSRNEDLEEIASTDLKYLLVPAFQGALTMKQVNPSKRLDHLQRAREHFINYLTQCHCYHVAEFELPKTMNNSAENHTANSSMAYPSLVAMASQRQAKIQRYKQKKELEHRLSAMKSAVESGQADDERVREYYLLHLQRWIDISLEEIESIDQEIKILRERDSSREASTSNSSRQERPPVKPFILTRNMAQAKVFGAGYPSLPTMTVSDWYEQHRKYGALPDQGIAKAAPEEFRKAAQQQEEQEEKEEEDDEQTLHRAREWDDWKDTHPRGYGNRQNMG
notes: mature; also called alpha4; IGBP1 gene product; not shown: two-hybrid fusion partner

Columns and labels:
[1] = molecular target: T1, endogenous α4 of the transfected human cell lines (HeLa, U373MG) (UniProt P78318 2-339); assay: cell-based or functional assay
T1 sequence (looked up): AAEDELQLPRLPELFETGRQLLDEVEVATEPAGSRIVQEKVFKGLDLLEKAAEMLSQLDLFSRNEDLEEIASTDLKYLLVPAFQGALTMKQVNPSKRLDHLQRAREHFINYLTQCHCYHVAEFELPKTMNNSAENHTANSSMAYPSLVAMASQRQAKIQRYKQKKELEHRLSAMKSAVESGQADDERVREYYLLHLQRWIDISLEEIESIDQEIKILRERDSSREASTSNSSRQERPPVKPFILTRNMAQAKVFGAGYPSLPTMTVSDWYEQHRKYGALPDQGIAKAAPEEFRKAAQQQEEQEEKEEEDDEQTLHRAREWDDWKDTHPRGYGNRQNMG

[2] = molecular target: B4; assay: yeast two-hybrid, comparison of the α4-affinities of MID1 peptides
[3] = molecular target: B2; assay: yeast two-hybrid, deletion studies with α4 (preliminary data)
[4] = molecular target: T2, HHARI (UniProt Q9Y4X5 1-557, limits assumed); assay: yeast two-hybrid, growth on his- leu- trp- plate
T2 construct: Two-hybrid fusion protein; fusion partner not described

[5] = molecular target: T3, PARKIN (UniProt O60260 1-465, limits assumed); assay: yeast two-hybrid, growth on his- leu- trp- plate
T3 construct: Two-hybrid fusion protein; fusion partner not described
T3 sequence (O60260 whole entry, the tested form may be a part): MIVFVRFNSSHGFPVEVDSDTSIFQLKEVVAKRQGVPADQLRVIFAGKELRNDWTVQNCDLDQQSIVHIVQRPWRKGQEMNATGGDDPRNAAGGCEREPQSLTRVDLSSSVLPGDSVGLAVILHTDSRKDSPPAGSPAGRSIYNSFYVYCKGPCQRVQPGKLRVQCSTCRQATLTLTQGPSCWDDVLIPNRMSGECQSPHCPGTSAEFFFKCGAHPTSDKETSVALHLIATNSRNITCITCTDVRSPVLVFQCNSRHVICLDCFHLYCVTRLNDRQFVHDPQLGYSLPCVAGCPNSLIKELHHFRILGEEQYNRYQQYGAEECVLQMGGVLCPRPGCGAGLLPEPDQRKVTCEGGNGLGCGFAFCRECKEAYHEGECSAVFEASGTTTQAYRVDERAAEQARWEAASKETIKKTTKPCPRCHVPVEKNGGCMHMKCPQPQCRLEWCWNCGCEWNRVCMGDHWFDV

T2 sequence (Q9Y4X5 whole entry, the tested form may be a part): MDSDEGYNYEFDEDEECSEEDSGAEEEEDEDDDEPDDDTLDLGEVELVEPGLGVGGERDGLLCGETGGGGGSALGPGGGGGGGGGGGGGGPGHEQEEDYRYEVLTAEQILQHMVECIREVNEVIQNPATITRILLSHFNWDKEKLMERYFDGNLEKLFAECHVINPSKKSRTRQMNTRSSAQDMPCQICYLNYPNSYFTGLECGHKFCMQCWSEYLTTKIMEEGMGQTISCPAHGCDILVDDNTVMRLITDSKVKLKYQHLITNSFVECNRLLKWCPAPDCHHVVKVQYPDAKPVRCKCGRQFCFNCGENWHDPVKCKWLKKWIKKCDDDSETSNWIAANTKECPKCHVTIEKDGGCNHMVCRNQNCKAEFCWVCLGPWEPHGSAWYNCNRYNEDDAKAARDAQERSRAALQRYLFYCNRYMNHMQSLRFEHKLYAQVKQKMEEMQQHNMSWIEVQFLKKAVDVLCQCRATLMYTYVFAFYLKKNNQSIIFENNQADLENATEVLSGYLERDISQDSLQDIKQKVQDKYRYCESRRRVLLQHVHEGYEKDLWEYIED

ratio between phosphorylated and dephosphorylated hFused-form (western blot) [1]: 3 ratio
ratio between phosphorylated and dephosphorylated hFused-form (western blot, repeat) [1]: 3 ratio
B1: myc-tagged B-box 1 of the MID1 protein (peptide, not shown: small tags and cut ends)
peptide: TMTSAEKVLCQFCDQDPAQDAVKTCVTCEVSYCDECLKATHPNKKPFTGHRLIEPIPD

strength of interaction relative to full-length α4 [3]: > 10 times
B3: small part of α4 (44 amino acids), yeast two-hybrid deletion construct (peptide)
peptide: ERPPVKPFILTRNMAQAKVFGAGYPSLPTMTVSDWYEQHRKYGA
notes: The range 236-279 is inferred from the equal length of 44 residues; also called peptidic fragment of α4

The next lines start with the binder.

Binder: B2
fold increase of affinity for α4 compared to the full length MID1 protein [2]: 10 fold

Binder: B4
binding result [4]: no binding
binding result [5]: no binding
